Here are results for one molecule from PMC6681339, “CoCUN, a Novel Ubiquitin Binding Domain Identified in N4BP1” (Biomolecules, 2019).

Test [1] addresses T1, ubiquitin (UniProt P0CG48 1-76, 15N labelled in the complementary NMR experiment; unlabelled otherwise).
T1 construct: the model of the complex used the ubiquitin structure PDB 1D3Z and BMRB 6457; also called monoubiquitin; UBQ
Description: ITC; 3.3 mM ubiquitin titrated to 246 µM N4BP1 (847-896) in the cell; 20 mM Tris-HCl pH 8.0, 150 mM NaCl, 5% glycerol; room temperature; one-site binding model. Conditions: both partners purified. Background: ITC needs no label: the signal is the heat of the interaction.

Test [2] deals with T1, ubiquitin. Description: ITC; 2.78 mM N4BP1 (847-896) titrated to 200 µM ubiquitin in the cell; 20 mM Tris-HCl pH 8.0, 150 mM NaCl, 5% glycerol; room temperature; one-site binding model. The note with it: both partners purified.

No end group written: not given here.

B1: CoCUN domain of N4BP1 (aa 847–896), purified polypeptide (domain or fragment, human, UniProt O75113 847-896, looked up)
chain: AQRSSAETNELREALLKIFPDSEQRLKIDQILVAHPYMKDLNALSAMVLD
modifications: also: 15N isotopic labelling
notes: also called Cousin of CUBAN; N4BP1 UBD; source: bacterial expression (protocol for NMR sample preparation), purified
Consider B1, for which binding with ubiquitin [1] was characterised by a dissociation constant (Kd) of 49.7 ± 3.6 µM. In the test with ubiquitin [2], this molecule yielded a Kd of 61.8 ± 5.2 µM and a dH of -3.11 ± 0.0956 kcal/mol.

What is called Kd is the constant that tells how readily two partners part at equilibrium. A lower Kd goes with a tighter complex.
